{"source": "paper PMC2936243", "about": "(Journal of neurochemistry, 2010)", "target": "native rat α7 nicotinic acetylcholine receptor (hippocampus) (rat (endogenous in hippocampus)) (UniProt Q05941)", "test": "radioligand binding", "data": [{"substance": "Alexa Fluor 546-ArIB[V11L;V16A] (peptide)", "values": [{"measurement": "IC50", "value": 7.9, "unit": "nM"}, {"measurement": "Ki", "value": 1.8, "unit": "nM"}]}]}
